Measurements: US20100330095A1 (U3 PHARMA, published 2010)

T1: human receptor tyrosine kinase AXL transcript variant 1 (human, UniProt P30530 26-894)
T1 construct: Overexpressed on RatI-AXL cl.2 and NIH3T3-AXL cl.7 fibroblasts (pLXSN-hAXL); endogenous on human cancer cell lines and HUVEC in the functional assays; also called hAXL; human AXL
T1 sequence: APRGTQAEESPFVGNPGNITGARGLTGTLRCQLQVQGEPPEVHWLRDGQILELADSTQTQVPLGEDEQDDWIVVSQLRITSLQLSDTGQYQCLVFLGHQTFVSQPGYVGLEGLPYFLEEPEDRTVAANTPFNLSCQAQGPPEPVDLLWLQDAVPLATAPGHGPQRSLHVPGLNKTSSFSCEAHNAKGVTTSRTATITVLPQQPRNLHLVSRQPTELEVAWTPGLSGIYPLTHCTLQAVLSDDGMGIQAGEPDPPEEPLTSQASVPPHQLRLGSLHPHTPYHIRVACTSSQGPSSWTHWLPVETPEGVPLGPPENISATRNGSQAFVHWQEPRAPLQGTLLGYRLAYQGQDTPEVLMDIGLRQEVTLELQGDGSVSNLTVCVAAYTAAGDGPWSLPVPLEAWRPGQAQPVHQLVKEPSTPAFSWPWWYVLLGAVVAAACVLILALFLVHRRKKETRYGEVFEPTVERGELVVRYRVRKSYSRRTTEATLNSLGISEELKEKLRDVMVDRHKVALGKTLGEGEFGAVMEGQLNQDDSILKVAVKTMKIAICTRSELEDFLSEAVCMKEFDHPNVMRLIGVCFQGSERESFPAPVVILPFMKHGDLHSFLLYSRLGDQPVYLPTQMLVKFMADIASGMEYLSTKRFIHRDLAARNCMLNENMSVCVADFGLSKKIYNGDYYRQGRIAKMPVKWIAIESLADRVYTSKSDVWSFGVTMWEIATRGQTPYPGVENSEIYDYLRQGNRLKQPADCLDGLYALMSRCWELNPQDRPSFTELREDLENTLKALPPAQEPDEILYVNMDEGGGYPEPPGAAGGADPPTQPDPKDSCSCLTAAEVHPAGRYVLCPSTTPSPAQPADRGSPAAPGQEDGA

T2: cynomolgus monkey AXL (cynomolgus monkey, UniProt P30530 26-894 (human entry))
T2 construct: Cloned from cynomolgus brain cDNA; transiently expressed on HEK293T cells (pcDNA3-cyAXL); also called cyAXL
T2 chain: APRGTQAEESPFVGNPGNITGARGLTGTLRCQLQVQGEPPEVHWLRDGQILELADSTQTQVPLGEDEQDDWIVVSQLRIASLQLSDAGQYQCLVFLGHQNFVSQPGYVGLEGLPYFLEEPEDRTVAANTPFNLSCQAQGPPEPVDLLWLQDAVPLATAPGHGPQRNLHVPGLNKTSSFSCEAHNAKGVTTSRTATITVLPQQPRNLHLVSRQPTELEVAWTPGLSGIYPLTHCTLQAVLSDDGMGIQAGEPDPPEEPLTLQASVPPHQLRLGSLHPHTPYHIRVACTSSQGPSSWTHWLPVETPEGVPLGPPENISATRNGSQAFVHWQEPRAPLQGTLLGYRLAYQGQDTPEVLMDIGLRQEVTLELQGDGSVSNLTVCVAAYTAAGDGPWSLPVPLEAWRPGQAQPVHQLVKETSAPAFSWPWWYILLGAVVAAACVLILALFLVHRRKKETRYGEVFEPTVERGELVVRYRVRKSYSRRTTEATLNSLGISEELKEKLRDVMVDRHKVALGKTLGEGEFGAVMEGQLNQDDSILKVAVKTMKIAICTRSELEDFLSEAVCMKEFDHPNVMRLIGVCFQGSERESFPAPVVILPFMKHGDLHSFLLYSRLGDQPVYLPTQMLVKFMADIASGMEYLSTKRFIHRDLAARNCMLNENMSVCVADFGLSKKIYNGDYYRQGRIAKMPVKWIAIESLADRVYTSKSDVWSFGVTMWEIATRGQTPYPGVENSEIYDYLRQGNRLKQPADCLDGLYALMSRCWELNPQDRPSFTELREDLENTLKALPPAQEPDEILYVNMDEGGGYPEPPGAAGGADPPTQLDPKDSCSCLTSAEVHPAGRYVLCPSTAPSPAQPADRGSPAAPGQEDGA


How the values were obtained:
[1] = target: T1, human receptor tyrosine kinase AXL …; assay: flow cytometry, NIH3T3-hAXL cells
cynomolgus monkey AXL = target: T2, cynomolgus monkey AXL; assay: flow cytometry, transfected HEK293T cells, 10 µg/ml
Method: FIG. 3. Flow cytometry analysis of cross-reactivity of rat-anti AXL antibodies with mouse and cynomolgus monkey AXL as well as human Mer and Sky. HEK293T fibroblasts were transiently transfected with pcDNA3, pcDNA3-hAXL, pcDNA3 mAXL, pcDNA3-cyAXL, pcDNA3-hMer, or pcDNA3-hSky. […] See text for details.
For FACS analysis, 2×10⁵ cells were harvested with 10 mM EDTA in PBS, washed once with FACS buffer (PBS, 3% FCS, 0.4% azide) and seeded on a 96 well round bottom plate. […] After incubation on ice for 1 h, cells were washed twice with chilled FACS buffer and resuspended with PE-conjugated donkey anti-rat (Jackson) secondary antibody diluted 1:50 in FACS buffer (100 μl/well) or PE-conjugated donkey anti-mouse secondary antibody for control. Protected from light, cells were incubated on ice for 30 min, washed twice with FACS buffer and analyzed using an Epics XL-MCL flow cytometer (Beckman Coulter).

Row | Binder | FACS shift [1] | binding result (cynomolgus monkey AXL)
1 | III 11D5 (antibody, rat IgG2a, V domains shown, rat hybridoma antibody, antagonistic) VH: EVQLQESGPGLVKPSQSLSLTCSVTGYSITSNYWGWIRKFPGNKMEWIGHITNSGNTTYNPSLKSRISISRDTSRNQFFLQLNSVTTEDTATYYCAKGAFDYWGQGVMVTVSS VL: DIQMTQSPSSMSTSLGDRVTITCRASQDIGNYLSWFQQKVGKSPRRMIYGAIKLAVGVPSRFSGSRSGSDYSLTISSLESEDMAIYYCLQYIQFPLTFGSGTKLELK | 8.9 | binds
2 | I 11B7 (antibody, V domains shown, rat hybridoma antibody, antagonistic) VH: EVQLQESGPGLVKPSQSLSLTCSVTGYSITSNYWGWIRKFPGDKMEWMGYITYSGSTSYNPSLKSRISITRDTSKNQFFLQLNSVTSEDTATYYCAITTFYYWGQGVMVTVSS VL: DIQMTQAPSSLPASLGDRVTITCRASQDIGNYLRWFQQKPGKSPRLMISGATNLAAGVPSRFSGSRSGSDYSLTISSLESEDMADYYCLQSKESPWTFGGGTKLELK | 36.2 | binds
3 | I 10D12 (antibody, V domains shown, rat hybridoma antibody, antagonistic; subclass G1) VH: EVQLQESGPGLVKPSQSLSLTCSVTGYSITSNYWGWIRKFPGNKMEWMGYITNSGGTAYNPSLKSRISITRDTSKNQFFLQLNSVIPEDSATYFCSRTPWDWGQGVMVTVSS VL: DIQMTQAPSSLPASLGDRVTIACRASQDIGNYLRWFQQKPGKSPRLMISGATNLAAGVPSRFSGSRSGSDYSRTISSLESEDMADYYCLQSKESPWTFGGGTKLELK | 37.5 | binds
